# From patent publication US20210238262A1 (published 2021)
# T1: Recombinant DENV-2 sE (1-396) from strain 16681-PDK53 with C-terminal AviTag and poly-histidine tags (UniProt P29991 281-676, biotinylated on the AviTag for BLI)
# T1 chain: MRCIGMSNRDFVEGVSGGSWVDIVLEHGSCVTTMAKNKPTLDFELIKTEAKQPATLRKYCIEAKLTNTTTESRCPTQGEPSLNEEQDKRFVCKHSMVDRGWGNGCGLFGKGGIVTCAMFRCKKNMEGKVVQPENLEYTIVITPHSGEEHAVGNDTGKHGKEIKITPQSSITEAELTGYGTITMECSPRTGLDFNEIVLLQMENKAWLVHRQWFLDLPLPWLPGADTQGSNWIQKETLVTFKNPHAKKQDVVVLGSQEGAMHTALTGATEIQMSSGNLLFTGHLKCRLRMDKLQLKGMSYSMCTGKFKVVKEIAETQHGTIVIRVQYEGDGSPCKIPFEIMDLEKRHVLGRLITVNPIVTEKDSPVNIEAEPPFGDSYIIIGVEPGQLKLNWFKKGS
# B1: MZ4 Fab (Fab, V domains shown)
# VH: QVHLQESGPGLVRPSETLSLTCTVSDGSISSYYWSWIRQPPGKGLEWIGSIYYTGSTNYNPSLKSRVTMSVDTSKNQFSLRLNSVTAADTAMYYCAGLDRYSWNEGGDHWGQGILVSVSS
# VL: QPVLTQPPSASGTPGQRVSISCSGSRSNLGKNTVNWYQQLPGTAPKLLIYNHSRRPSGVPERFSGSKSGTSASLAISGLQSEDEADYFCAAWDDSLNGLYVFGTGTKVTVLR
# B2: DENV-2 E (other)
# chain: T1 chain
# modifications: biotinylated on the AviTag for BLI
# Columns and labels:
# [1] = target: T1, Recombinant DENV-2 sE (1-396) from …; assay: BLI; Fab
# MZ2 = assay: BLI; Fab
Binder,Kd [1] [nM],Kd (MZ2) [nM]
B1,1,–
B2,–,0.4
